The record followed here is patent publication US6808893 (Johns Hopkins, dated 2004).

B1: GTRAP4-48 (glutamate transporter 4 associated protein), full-length (other)
chain: MSIRLPHSIDRSASKKQSHLSSPIASWLSSLSSLGDSTPERTSPSHHRQPSDTSETTAGLVQRCVIIQKDQHGFGFTVSGDRIVLVQSVRPGGAAMKAGVKEGDRIIKVNGTMVTNSSHLEVVKLIKSGAYAALTLLGSSPPSVGVSGLQQNPSVAGVLRVNPIIPPPPPPPPLPPPQHITGPKPLQDPEVQKHATQILWNMLRQEEEELQDILPPCGETSQRTCEGRLSVDSQEADSGLDSGTERFPSISESLMNRNSVLSDPGLDSPQTSPVILARVAQHHRRQGSDAALLPLNHQGIDQSPKPLIIGPEEDYDPGYFNNESDIIFQDLEKLKSHPAYLVVFLRYILSQADPGPLLFYLCSEVYQQTNPKDSRSLGKDIWNIFLEKNAPLRVKIPEMLQAEIDLRLRNNEDPRNVLCEAQEAVMLEIQEQINDYRSKRTLGLGSLYGENDLLGLDGDPLRERQMAEKQLAALGDILSKYEEDRSAPMDFAVNTFMSHAGIRLRESRSSCTAEKTQSAPDKDKWLPFFPKTKKQSSNSKKEKDALEDKKRNPILRYIGKPKSSSQSIKPGNVRNIIQHFENSHQYDVPEPGTQRLSTGSFPEDLLESDSSRSEIRLGRSGSLKGREEMKRSRKAENVPRPRSDVDMDAAAEAARLHQSASSSASSLSTRSLENPTPPFTPKMGRRSIESPNLGFCTDVILPHLLEDDLGQLSDLEPEPEVQNWQHTVGKDVVANLTQREIDRQEVINELFVTEASHLRTLRVLDLIFYQRMRKENLMPREELARLFPNLPELIEIHNSWCEAMKKLREEGPIIRDISDPMLARFDGPAREELQQVAAQFCSYQSVALELIRTKQRKESRFQLFMQEAESHPQCRRLQLRDLIVSEMQRLTKYPLLLENIIKHTEGGTSEHEKLCRARDQCREILKFVNEAVKQTENRHRLEGYQKRLDATALERASNPLAAEFKSLDLTTRKMIHEGPLTWRISKDKTLDLQVLLLEDLVVLLQRQEERLLLKCHSKTAVGSSDSKQTFSPVLKLNAVLIRSVATDKRAFFIICTSELGPPQIYELVALTSSDKNIWMELLEEAVQNATKHPGAAPIPIHPSPPGSQEPAYQGSTSSRVEINDSEVYHTEKEPKKLPEGPGPEQRVQDKQLIAQGEPVQEEDEEELRTLPRAPPSLDGENRGIRTRDPVLLALTGPLLMEGLADAALEDVENLRHLILWSLLPGHTVKTQAAGEPEDDLTPTPSVVSITSHPWDPGSPGQAPTISDSTRLARPEGSQPEGEDVAVSSLAHLPPRTRSSGVWDSPELDRNPAAEAASTEPAASYKVVRKVSLLPGGGVGAAKVAGSNAIPDSGQSESELSEVEGGAQATGNCFYVSMPAGPLDSSTEPTGTPPSPSQCHSLPAWPTEPQPYRGVRGGQCSSLVRRDVDVIFHTIEQLTIKLHRLKDMELAHRELLKSLGGESSGGTTPVGSFHTEAARWTDYSLSPPAKEALASDSQNGQEQGSCPEEGSDIALEDSATDTAVSPGP
notes: also called GTRAP48

For experiment [1], the target named is T1, EAAT4, full-length glutamate transporter (rat, UniProt O35921 1-561).
T1 sequence (looked up): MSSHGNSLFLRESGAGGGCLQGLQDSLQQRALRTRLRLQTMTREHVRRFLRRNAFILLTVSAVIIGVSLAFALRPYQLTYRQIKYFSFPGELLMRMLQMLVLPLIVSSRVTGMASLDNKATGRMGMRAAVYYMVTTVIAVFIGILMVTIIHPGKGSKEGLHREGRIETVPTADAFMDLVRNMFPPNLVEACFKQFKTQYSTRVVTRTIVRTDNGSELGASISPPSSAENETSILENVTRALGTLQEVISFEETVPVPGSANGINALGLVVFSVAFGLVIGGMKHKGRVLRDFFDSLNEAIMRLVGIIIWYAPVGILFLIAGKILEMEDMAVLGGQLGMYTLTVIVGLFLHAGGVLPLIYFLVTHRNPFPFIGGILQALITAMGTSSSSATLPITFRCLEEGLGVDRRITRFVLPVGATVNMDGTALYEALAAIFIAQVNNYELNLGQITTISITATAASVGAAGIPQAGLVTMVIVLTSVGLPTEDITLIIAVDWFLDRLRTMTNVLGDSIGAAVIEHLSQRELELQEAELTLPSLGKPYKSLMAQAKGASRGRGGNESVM
Description: cell-based or functional assay.

Experiment [2] has as its target T2, GTRAP4-41 (glutamate transporter 4 associated protein), full-length (rat, UniProt Q9QWN8 2-2388).
T2 construct: Used for native GTRAP4-41 of rat brain and for full-length GTRAP4-41 expressed where no tag is stated (transfected HEK cells, HSV amplicon); also called GTRAP41
Briefly: co-immunoprecipitation from solubilized rat brain. On the procedure:
(§1) Immunoprecipitation from cerebellum lysate. Sprague-Dawley (SD) rat cerebellum was dissected, washed with 50 mM Tris-HCl (pH 7.5), 2 mM EDTA and 0.5 mM DTT, and homogenized on ice in buffer containing 20 mM Tris-HCl (pH 7.5), 10% sucrose, 1 mM EDTA, 0.1 mM PMSF, 0.3 mM aprotinin, 1 mM benamidine, 10 mg/ml leupeptine and 10 mg/ml pepstatine. Protein concentration was measured and adjusted to 2–3 mg/ml, and the homogenate was mixed in a 1:1 ratio with the solubilization buffer (homogenization buffer plus 2% Triton X-100). After 2 h, the lysate was spun at 10,000 g for 10 min. For each immunoprecipitation, […] of the Triton-lysate was incubated overnight at 4° C. with 5 μg of the anti-amino-terminal EAAT4 antibody. Immune complexes were precipitated with protein A Sepharose (Pharmacia), washed three times with 10 mM Tris-HCl (pH 7.5) and 5 mM EDTA, eluted with 3×SDS loading buffer, and processed for western blot analysis. The filters were probed with affinity purified rabbit antibodies against GTRAP4-41 and GTRAP4-48.
(§2) The GTRAP4-41 and GTRAP4-48 interaction with EAAT4 was then studied in vivo using solubilized brain preparations. GTRAP4-41 and GTRAP4-48 are co-immunoprecipitated with EAAT4 from brain by antibodies directed at the amino-terminus of EAAT4 but not by antibodies directed at the carboxy-terminus. However, since the site of interaction is within the carboxy-terminus of EAAT4, it is likely that the carboxy-terminal antibodies disrupt the protein-protein interaction. […] GTRAP4-48 is also not co-immunoprecipitated from brain with antibodies directed at GTRAP4-41.

Experiment [3] has as its target T3, myc-tagged full-length GTRAP4-41 (rat, UniProt Q9QWN8 2-2388).
T3 construct: tested from solubilized cell extract; also called myc-tagged GTRAP4-41; not shown: myc tag of the myc-tagged pRK5 vector
Briefly: in vitro binding assay, bead-linked GST-EAAT4 with solubilized HEK 293T extract. The protocol:
(§3) GTRAP4-41 and 4-48 Immunoprecipitation with Fusion Proteins. Full-length EAAT4 was subcloned into the EcoR I site of the GST-fusion vector pGEX-6P-1 (Pharmacia). Synthesis of recombinant proteins in BL21 cells (Novagen) was induced by 0.1 mM isopropyl b-D-thiogalactoside for 2 hrs at 30° C. and prepared as a crude bacterial lysate by mild sonication in ice-cold 1 C PBS and solubilization in 1% Triton X-100. Cell debris was removed by centrifugation at 7,000 g and the cleared bacterial lysate applied to glutathione-Sepharose-4B (Pharmacia). […] The cellular lysate was incubated with GST or GST-EAAT4 immobilized on glutathione-Sepharose-4B, and washed to remove non-specifically bound proteins. Specifically bound proteins were eluted with 3×SDS loading buffer and analyzed by immunoblotting using an anti-c-myc antibody. Bands were visualized by HRP-conjugated secondary antibodies and ECL chemiluminescence (Amersham).
(§4) The biochemical interaction between GTRAP4-41 or GTRAP4-48 and EAAT4 was confirmed using an in vitro binding assay. […] The solubilized cell extracts were then mixed with bead-linked GST-EAAT4 or GST alone and the bound proteins were eluted. GTRAP4-41 and GTRAP4-48 were specifically retained by the GST-EAAT4 fusion protein, but not by GST alone.

Experiment [4] concerns the target T4, myc-tagged full-length GTRAP4-48 (rat, UniProt Q9ES67 1-1527).
T4 construct: tested from solubilized cell extract; also called myc-tagged GTRAP4-48; not shown: myc tag of the myc-tagged pRK5 vector
The description is as above. The protocol:
as §3, §4

Experiment [5] concerns the target B1. Description: co-immunoprecipitation from solubilized rat brain. The protocol: as §1, §2

T2 sequence (Q9QWN8 other isoform, or with tags, fused parts or gaps limits assumed): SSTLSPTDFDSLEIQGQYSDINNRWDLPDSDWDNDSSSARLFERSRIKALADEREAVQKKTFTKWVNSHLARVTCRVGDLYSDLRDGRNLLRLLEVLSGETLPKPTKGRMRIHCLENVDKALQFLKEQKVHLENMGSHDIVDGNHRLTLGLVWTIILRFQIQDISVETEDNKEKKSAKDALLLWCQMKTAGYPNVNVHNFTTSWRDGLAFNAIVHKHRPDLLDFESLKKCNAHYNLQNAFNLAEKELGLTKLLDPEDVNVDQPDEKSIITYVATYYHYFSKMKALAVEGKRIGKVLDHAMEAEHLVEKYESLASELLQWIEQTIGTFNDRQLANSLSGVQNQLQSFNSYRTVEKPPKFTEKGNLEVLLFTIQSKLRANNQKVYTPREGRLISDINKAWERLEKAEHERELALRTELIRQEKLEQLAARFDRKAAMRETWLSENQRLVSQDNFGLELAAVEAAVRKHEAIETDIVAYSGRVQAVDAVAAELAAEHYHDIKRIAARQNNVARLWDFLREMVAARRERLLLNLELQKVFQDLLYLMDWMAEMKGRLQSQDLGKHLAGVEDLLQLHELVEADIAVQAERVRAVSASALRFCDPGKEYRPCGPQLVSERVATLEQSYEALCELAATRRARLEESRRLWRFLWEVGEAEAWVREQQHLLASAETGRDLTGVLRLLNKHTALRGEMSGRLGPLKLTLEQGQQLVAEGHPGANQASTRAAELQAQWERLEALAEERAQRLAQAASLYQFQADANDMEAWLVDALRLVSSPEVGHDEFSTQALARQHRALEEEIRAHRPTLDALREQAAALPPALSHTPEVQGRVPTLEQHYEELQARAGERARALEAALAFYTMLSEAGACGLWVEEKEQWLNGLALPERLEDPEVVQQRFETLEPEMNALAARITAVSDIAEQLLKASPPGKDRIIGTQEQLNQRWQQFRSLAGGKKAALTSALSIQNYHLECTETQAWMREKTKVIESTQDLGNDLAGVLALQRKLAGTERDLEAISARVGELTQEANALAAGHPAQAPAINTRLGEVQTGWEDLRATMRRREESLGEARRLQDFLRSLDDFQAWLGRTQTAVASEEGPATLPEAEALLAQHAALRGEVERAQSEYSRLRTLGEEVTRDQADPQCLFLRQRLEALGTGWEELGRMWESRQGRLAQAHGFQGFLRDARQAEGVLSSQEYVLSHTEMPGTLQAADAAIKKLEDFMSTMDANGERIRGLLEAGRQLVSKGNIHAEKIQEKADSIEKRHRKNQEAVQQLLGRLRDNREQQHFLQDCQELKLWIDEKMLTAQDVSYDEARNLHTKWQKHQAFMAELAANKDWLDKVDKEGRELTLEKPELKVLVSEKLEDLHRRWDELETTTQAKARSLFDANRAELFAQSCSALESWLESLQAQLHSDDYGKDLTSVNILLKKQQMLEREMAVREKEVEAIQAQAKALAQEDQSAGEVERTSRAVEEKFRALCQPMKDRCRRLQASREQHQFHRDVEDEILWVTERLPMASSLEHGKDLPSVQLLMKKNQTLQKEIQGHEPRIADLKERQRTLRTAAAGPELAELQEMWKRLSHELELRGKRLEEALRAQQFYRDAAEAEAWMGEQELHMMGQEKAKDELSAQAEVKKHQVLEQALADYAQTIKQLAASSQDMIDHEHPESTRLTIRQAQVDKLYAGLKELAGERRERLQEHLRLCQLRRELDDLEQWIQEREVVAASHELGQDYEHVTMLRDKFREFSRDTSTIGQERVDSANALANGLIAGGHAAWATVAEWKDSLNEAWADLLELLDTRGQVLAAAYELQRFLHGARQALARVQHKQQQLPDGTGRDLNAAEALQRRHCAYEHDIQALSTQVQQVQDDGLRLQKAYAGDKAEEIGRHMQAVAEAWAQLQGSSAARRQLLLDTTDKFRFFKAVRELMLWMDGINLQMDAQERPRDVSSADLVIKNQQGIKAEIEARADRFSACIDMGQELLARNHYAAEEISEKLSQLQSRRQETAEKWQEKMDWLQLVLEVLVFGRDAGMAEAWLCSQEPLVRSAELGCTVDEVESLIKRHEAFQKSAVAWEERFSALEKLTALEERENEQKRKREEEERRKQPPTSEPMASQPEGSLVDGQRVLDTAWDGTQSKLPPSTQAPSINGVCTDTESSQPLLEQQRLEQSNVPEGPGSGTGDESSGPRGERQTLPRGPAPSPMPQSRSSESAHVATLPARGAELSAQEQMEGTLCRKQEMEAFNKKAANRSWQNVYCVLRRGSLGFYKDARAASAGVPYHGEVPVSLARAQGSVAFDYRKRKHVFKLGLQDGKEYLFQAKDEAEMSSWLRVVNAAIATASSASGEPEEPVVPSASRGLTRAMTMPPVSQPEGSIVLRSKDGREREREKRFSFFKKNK
T3 sequence (Q9QWN8 other isoform, or with tags, fused parts or gaps): as the sequence (Q9QWN8 other isoform, or with tags, fused parts or gaps limits assumed) above

Consider B1, for which the “Na+-dependent glutamate transport in HEK-rEAAT4 cells” value in experiment [1] worked out at 4 fold. Moreover, the binding result in experiment [2] was “no binding”.

B2: GST-EAAT4 fusion protein (full-length EAAT4 in pGEX-6P-1) (other, UniProt O35921 1-561, looked up)
chain: MSSHGNSLFLRESGAGGGCLQGLQDSLQQRALRTRLRLQTMTREHVRRFLRRNAFILLTVSAVIIGVSLAFALRPYQLTYRQIKYFSFPGELLMRMLQMLVLPLIVSSRVTGMASLDNKATGRMGMRAAVYYMVTTVIAVFIGILMVTIIHPGKGSKEGLHREGRIETVPTADAFMDLVRNMFPPNLVEACFKQFKTQYSTRVVTRTIVRTDNGSELGASISPPSSAENETSILENVTRALGTLQEVISFEETVPVPGSANGINALGLVVFSVAFGLVIGGMKHKGRVLRDFFDSLNEAIMRLVGIIIWYAPVGILFLIAGKILEMEDMAVLGGQLGMYTLTVIVGLFLHAGGVLPLIYFLVTHRNPFPFIGGILQALITAMGTSSSSATLPITFRCLEEGLGVDRRITRFVLPVGATVNMDGTALYEALAAIFIAQVNNYELNLGQITTISITATAASVGAAGIPQAGLVTMVIVLTSVGLPTEDITLIIAVDWFLDRLRTMTNVLGDSIGAAVIEHLSQRELELQEAELTLPSLGKPYKSLMAQAKGASRGRGGNESVM
notes: mature; Made in BL21 cells, immobilized on glutathione-Sepharose-4B; not shown: glutathione S-transferase of vector pGEX-6P-1 (Pharmacia)
B2: the binding result in experiment [3] and in experiment [4] was “binds” throughout.

B3: GLT-1 glutamate transporter (other, rat, UniProt P31596 1-573, looked up)
chain: MASTEGANNMPKQVEVRMHDSHLSSEEPKHRNLGMRMCDKLGKNLLLSLTVFGVILGAVCGGLLRLAAPIHPDVVMLIAFPGDILMRMLKMLILPLIISSLITGLSGLDAKASGRLGTRAMVYYMSTTIIAAVLGVILVLAIHPGNPKLKKQLGPGKKNDEVSSLDAFLDLIRNLFPENLVQACFQQIQTVTKKVLVAPPSEEANTTKAVISLLNETMNEAPEETKIVIKKGLEFKDGMNVLGLIGFFIAFGIAMGKMGEQAKLMVEFFNILNEIVMKLVIMIMWYSPLGIACLICGKIIAIKDLEVVARQLGMYMITVIVGLIIHGGIFLPLIYFVVTRKNPFSFFAGIFQAWITALGTASSAGTLPVTFRCLEDNLGIDKRVTRFVLPVGATINMDGTALYEAVAAIFIAQMNGVILDGGQIVTVSLTATLASIGAASIPSAGLVTMLLILTAVGLPTEDISLLVAVDWLLDRMRTSVNVVGDSFGAGIVYHLSKSELDTIDSQHRMHEDIEMTKTQSVYDDTKNHRESNSNQCVYAAHNSVVIDECKVTLAANGKSADCSVEEEPWKREK
notes: whole, on cells; Native protein in solubilized rat brain
On to B3, for which the binding result in experiment [2] and in experiment [5] was “no binding” in each case.

B4: GLAST glutamate transporter (other, rat, UniProt P24942 1-543, looked up)
chain: MTKSNGEEPRMGSRMERFQQGVRKRTLLAKKKVQNITKEDVKSYLFRNAFVLLTVSAVIVGTILGFALRPYKMSYREVKYFSFPGELLMRMLQMLVLPLIISSLVTGMAALDSKASGKMGMRAVVYYMTTTIIAVVIGIIIVIIIHPGKGTKENMYREGKIVQVTAADAFLDLIRNMFPPNLVEACFKQFKTSYEKRSFKVPIQANETLLGAVINNVSEAMETLTRIREEMVPVPGSVNGVNALGLVVFSMCFGFVIGNMKEQGQALREFFDSLNEAIMRLVAVIMWYAPLGILFLIAGKILEMEDMGVIGGQLAMYTVTVIVGLLIHAVIVLPLLYFLVTRKNPWVFIGGLLQALITALGTSSSSATLPITFKCLEENNGVDKRITRFVLPVGATINMDGTALYEALAAIFIAQVNNFDLNFGQIITISITATAASIGAAGIPQAGLVTMVIVLTSVGLPTDDITLIIAVDWFLDRLRTTTNVLGDSLGAGIVEHLSRHELKNRDVEMGNSVIEENEMKKPYQLIAQDNEPEKPVADSETKM
notes: as for B3
In the case of B4, the binding result in experiment [2] and in experiment [5] was “no binding” in each case.

B5: EAAC1, full-length glutamate transporter (other, rat, UniProt P51907 1-523, looked up)
chain: MGKPTSSGCDWRRFLRNHWLLLSTVAAVVLGIVVGVLVRGHSELSNLDKFYFAFPGEILMRMLKLVILPLIISSMITGVAALDSNVSGKIGLRAVVYYFSTTVIAVILGIVLVVSIKPGVTQKVNEINRTGKTPEVSTVDAMLDLIRNMFPENLVQACFQQYKTKREEVKPASDPGGNQTEVSVTTAMTTMSENKTKEYKIVGLYSDGINVLGLIIFCLVFGLVIGKMGEKGQILVDFFNALSDATMKIVQIIMCYMPIGILFLIAGKIIEVEDWEIFRKLGLYMATVLSGLAIHSLVVLPLIYFIVVRKNPFRFALGMAQALLTALMISSSSATLPVTFRCAEEKNHVDKRITRFVLPVGATINMDGTALYEAVAAVFIAQLNGMDLSIGQIITISITATAASIGAAGVPQAGLVTMVIVLSAVGLPAEDVTLIIAVDWLLDRFRTMVNVLGDAFGTGIVEKLSKKELEQVDVSSEVNIVNPFALEPTILDNEDSDTKKSYVNGGFSVDKSDTISFTQTSQF
notes: whole, on cells; Used for native EAAC1 of rat brain and for EAAC1 expressed in HEK293, COS-7 and C6 glioma cells
In the case of B5, the binding result in experiment [2] and in experiment [5] was “no binding” in each case.
